The subject of the data set is HEK293T. As to the kind of experiment: median enrichment of reporter reads in eGFP-reduced (low/intermediate) vs eGFP-high sorted cells (eGFP-extension fusion abundance) (ratio); higher = stronger loss of eGFP-fusion protein abundance (more destabilising extension).
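Further: lentiviral eGFP-IRES-mCherry reporter pool sorted by FACS 96 h post-transduction, gated on mCherry-high cells, Illumina read counts normalized per million, median across four biological replicates.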

With YCLSILVHGCFERYGRQSPGHN [MAGEC3], the median enrichment was determined as 5.24.

In the case of “REPKGDWALWQLLSHTVDHSSPSCSLSSSECGW [TRIM66]”, the median enrichment is 12.8.

With “YNIRKKATSMVINGRKAGELDSAVLLTGELWSSAPVYGPCRLVGWQMLA [DPPA4]”, the median enrichment came out at 10.4.

With SNIYLK [TEX12], the median enrichment is 0.685.

Consider WQP [TP53AIP1], for which the median enrichment stood at 0.544.

As for RSGLFQ [IQCF1], the median enrichment was 0.394.

Turning to “QGNWALPHVFLLPPRDSNDMYSHLGHACLPNTIWSWTTFDTNQSYWTRPLEDLKYTSHAVVYLGCDSLSNAALGKDESDLQGE [APOBEC2]”, the median enrichment amounted to 6.1.

YGRWEVSSLSLACSSSWT [REG3G]: the median enrichment turned out to be 6.24.

In the case of CGHLSGPGALMEAIGTPELPSHS [ODF2], the median enrichment was found to be 0.872.

Regarding QNTFLL [CFAP97], the median enrichment was determined as 0.56.

Take “RGPELARPRTPNTIFAIQPQAMGTAFLPRGPGRPQRLLQARTLVHYTPCLGAEILQQKDAIFFVSFFSIFFSKESIFQYVECV [NFYC]”: the median enrichment came to 3.94.

Regarding LLQGSKLQR [OR7A5], the median enrichment turned out to be 10.4.

As to QSCSIHIGLMD [ZCCHC10], the median enrichment is 0.408.

For the substance QSIQQSLIRHAKI [SDHAF3], the median enrichment turned out to be 4.37.

Turning to “KIFFSPIFLPASGDTAAVTREASLGGPDAQGESWSGESMSCDTTAGAICSPAFLSVGEGISEFILYPRLAFTKFKSLSMRPRP [PGPEP1]”, the median enrichment stood at 11.5.

As to LHGPCMLINASSEM [TMEM205], the median enrichment was determined as 5.79.

Consider SQESRASLPRIAFIPKFAWK [CMBL], for which the median enrichment is 2.33.

SRMGLSL [APOBEC3G]: the median enrichment came out at 0.634.

YLYHYSRSSSQHHLLATWDV [GCG]: the median enrichment was 12.4.

ERSPNLQVQGRYIHI [MARK1]: the median enrichment was determined as 1.47.

With SMSSDWRIRKIYGPTFDAIF [ZCCHC4], the median enrichment was 8.58.

As to GISVSSLISGIFVDKIRRNSCNF [KATNAL1], the median enrichment is 2.39.

Regarding CLFCPHIFCFLGRMAEAWWLPPRSGTD [NR1H3], the median enrichment turned out to be 12.1.

As for YGFVVQD [EPM2AIP1], the median enrichment is 0.381.

With LNE [ZCCHC2], the median enrichment worked out at 0.346.

On to “LDLVQHGNDSYRLIQQLTLRQVVLFQRPLFLPKPCYELNQMCQVFSGVLSNILFSCMGTSPLQMTMLMDLFIYLFKSLFS [IFNA8]”, for which the median enrichment came out at 6.11.

As for “RSLRAGPSAAGSCLNTSLDMARTHRDTGQDQPCLWRQDTTIWPMAVTSCRVQSQTGNHHLRQDLPASFTFLISRALPPILCLG [SLC22A13]”, the median enrichment was 6.14.

On to WGSVQGLSH [CST5], for which the median enrichment was 0.711.

Regarding “CGWNQGQPALRASVLLRGAVCGEGLSWQGKHLRVTLTLGPLLFLKRLLATGKKNDLATLEETSAKEDVLASLSYFCSVVDLHI [POLR1D]”, the median enrichment was determined as 8.09.

In the case of RYQKKK [STARD6], the median enrichment turned out to be 0.951.

Consider SHFKLTL [PTGIR], for which the median enrichment was 1.1.

As to “GSPLCLGLLLPREFSPLTYPHLSGLTGRNHCTTERGWDGPASCLWEKTSCLGRGLCLVKVPTGNP [ITGAX]”, the median enrichment was found to be 5.38.

With “PWPHQWHRGAPATGWPSGQPEHQGHCQPAAEAGEQDRDRPQRALPGQPSGFLRDGGRAGGRWRGMVDVPKRCQRAAGFRILLC [DECR2]”, the median enrichment amounted to 3.51.

For the substance RARCPSPS [PTH2], the median enrichment was 2.74.

For the substance QVPFPLLNIKLNSI [NSMAF], the median enrichment worked out at 2.85.

With RHSPLLVPH [TP53], the median enrichment stood at 0.971.

For the substance “LPSRSTATQVYLPLPSNPFPRAIFISPNKRAPRK [HRC]”, the median enrichment turned out to be 11.1.

For CAS [FAM118B], the median enrichment was 0.212.

On to SFFFPSAS [KAT2B], for which the median enrichment was found to be 2.2.

YQAQLQKDLTCAHKILL [LCN6]: the median enrichment is 7.65.

As to “LTHAHAPLTLKRIHNSLEKHPHVCCRTHSSQLRPIPVTTASPPTPVTTASPPTPVTTASPPTALSPRPMSACPRAQDFLTGMW [SSH3]”, the median enrichment is 3.55.

In the case of YMILKPETI [TRIP11], the median enrichment amounted to 4.3.

With “PHAQSPPIPHAAPPQSQATSCLLLVGGGLLSPSSLTFNLTLTLHRAPTLHPSWKAGLMASHWPPPPDQSVLFRGLAPFPVSLK [LGALS9]”, the median enrichment was found to be 5.55.

Take GGGGG [Gly05]: the median enrichment came out at 1.79.

In the case of “RHSTRPPGLLGPPTPTALTAFPIAPGSSPPLGGTVKGSSLTRRLLLPLGSQLPPQESLLGRTLRTPSLHPVVL [KLC4]”, the median enrichment is 9.71.

As to RETPTTPQPHRTNNSLQV [DCSTAMP], the median enrichment was 0.265.

For the substance LTAPPPPLSPGPGG [VMO1], the median enrichment came to 8.99.

Regarding “WLVGLGSSARTSSPALAVVVQALQSAAGLFIKGIYICK [NRN1L]”, the median enrichment was 7.25.

Consider CRRQKISFVQKSKMKRM [INSIG2], for which the median enrichment is 3.96.

Regarding “SEMMSCPGPMATRTLQATLLCDQARIPGAGLRGLNGPSGTQVGLSTLSPTTQPTALK [TMEM54]”, the median enrichment was 0.763.

In the case of QRFSSEKNLCLIF [PHACTR3], the median enrichment turned out to be 9.78.

In the case of RFPSPLLLLLLDGNHSLDHACSL [TUBG2], the median enrichment stood at 2.18.

Regarding REFYRDAEKKERSEAIYAYGSRKR [CHCHD7], the median enrichment was found to be 7.02.

Consider STFKAFVK [GATA1], for which the median enrichment was 0.381.

As for LLLLLLLLLL [Leu10], the median enrichment stood at 14.7.

For the substance YKRSLADPSL [KCNQ3], the median enrichment worked out at 0.769.

On to “SEPQLTKSACPRTAPALELGARAAELVFGPQRRIQNQKLKSDVRWAPAPSAESRQGEAGWSQAPSHAAPKSWTHLWGAPHLHL [MYO9B]”, for which the median enrichment came to 7.17.

In the case of RRRR [Arg04], the median enrichment was 0.344.

As to RLAACLRNPAFFRR [MAPK10], the median enrichment stood at 12.2.

On to “PTVRPQRGQDKPCPDAFDRQLCVLVDRCRNKEEMESAPEKLQIQARREVLRKDLQQLHIHINQHNTGWRPNSGVHKRRRDVVG [H6PD]”, for which the median enrichment was found to be 5.25.

In the case of “SKCVLRASLFFTAAATFPHCLRCREGQVPASTGISDKPRAQPTRGSSLHAHTGYGDGGLQVSSARGLSLWHPHSCPAREALVV [SSNA1]”, the median enrichment was found to be 5.95.

For LELLPCPSFPPCTT [FEZF2], the median enrichment was determined as 1.27.

For the substance RAPWWERL [HTT], the median enrichment was determined as 1.54.

On to SNTAFNWELETH [PREPL], for which the median enrichment was 0.178.

Consider “LMPSTAADLWLDLGKGSIVLGKSTRSCKLGIHS [AGBL4]”, for which the median enrichment came out at 8.11.

LLEWIYDVPLRRSISATILI [HMGCLL1]: the median enrichment is 20.6.

On to QWLSGSMC [LYPD6], for which the median enrichment worked out at 0.958.

With YKLGLCFLLVTEDWVAP [SOAT1], the median enrichment was 9.15.

For QWPSDDS [COL15A1], the median enrichment was 0.307.

Regarding RSGLRRRRHRGE [Degron APPBP2], the median enrichment is 6.28.

Regarding SLFSLTYRMLV [ZNF639], the median enrichment came to 6.9.

Turning to “SPERSQDPSRQHQLTDALVVPPSSPDCARSAVPSSGHLSSLWVPPHPSPC [RBP5]”, the median enrichment was 3.81.

Take “EEITRWHQPRALARYGEGTWGPHLPPGLFREDPTVTPPSAVGAWRWAAGLNPPWGAPFLLPICVYIHK [MEF2B]”: the median enrichment came to 6.73.

As to SVVPLFH [KIF22], the median enrichment is 0.762.

“SEVPDMGPICSSSQLLSLTSHHGGSSHLLWICSL [CIAPIN1]”: the median enrichment amounted to 4.18.

For the substance QDFRSICKCLFFIIALYIVCYLTR [DDX5], the median enrichment is 10.2.

“YFTIKVKQRKLYAGHICMRIQLFSGCSTTK [TMPRSS11A]”: the median enrichment came to 9.64.

For FFFF [Phe04], the median enrichment is 9.4.

As to YGDFPVQ [GPALPP1], the median enrichment is 0.42.

As to YASLAAGTSTWRS [CRB2], the median enrichment came out at 2.41.

IIIIIIIIII [Ile10]: the median enrichment is 6.67.

As to CEQ [PRF1], the median enrichment turned out to be 12.2.

In the case of YDVQRRLNKCTAE [VPS33A], the median enrichment was 0.744.

Turning to “EPSPPLLCVGTGGPWPVPGHSGQGPRDISTRSWRAVRIHSACPALAGQRQGRTFGKTKTVGDRVCVYLCVSVSVCERELVSLK [TCF15]”, the median enrichment came out at 6.39.

Consider WTYVLC [OR2L5], for which the median enrichment worked out at 7.99.

Take RKLLP [NOX4]: the median enrichment was 0.64.

On to LKPPSAGDPDKMAP [KRTAP1-1], for which the median enrichment came to 0.285.

Consider RCCCHGGLGQRGERSVLEA [OBSCN], for which the median enrichment stood at 11.1.

For the substance “WGHQSPQWTDAFDGQDEGQGHWSEGVDKTAAI [TBC1D21]”, the median enrichment amounted to 0.0629.

Regarding CGAARRSR [METAP1D], the median enrichment was 1.33.

Consider KRQK [CCR2], for which the median enrichment turned out to be 0.621.

For the substance “SDRTCLRGRRTLAWAQESEAAFLLRGPSGESGPRYHARTLRGPVSCRRVSTFPPNPGLTALRSARRARAETRVGCGELKEPIK [UQCC3]”, the median enrichment was determined as 3.65.

With “YGRIMACLSPFLLQIKFSTHSFLLQIKFSTHSFFNTVL [OR2AG2]”, the median enrichment is 49.9.

As to WVPSEVFIPACVI [VPS13B], the median enrichment came to 13.3.

“CAAQTEAQAQGRNLEQGHFGHSRTGERQLYFSLGQLQRVGQALMGSDCQSDAVGPRQRKAGRRGARTFSPHCPFPFSGEHRRL [C16orf58]”: the median enrichment was determined as 4.54.

Regarding SGV [PTCHD4], the median enrichment is 0.462.

Turning to LVISSVFCFLF [MS4A1], the median enrichment worked out at 7.46.

Turning to “RPWPRAQACLGWALPLTTQGGPGPLGFLPWGQQPPAGLVGSGFLDFLMKRGYL [KCNH4]”, the median enrichment came out at 4.41.

For SLREAC [ZNF672], the median enrichment came to 0.708.

Consider “STFLHTQPLLYSTSCPGASHTPELICIILTIFSLLSPFFLFERPSLISKM [TRIM5]”, for which the median enrichment worked out at 16.6.

Consider RKTWPENPQVLQRKTELGKGESWKDGAD [ABHD15], for which the median enrichment was determined as 1.61.

On to REALHLNLFMS [ERI2], for which the median enrichment was found to be 2.13.

On to QQFSHFLHLSDRTHHLCLP [ZDHHC15], for which the median enrichment was 20.5.

Take RRRRRRR [Arg07]: the median enrichment came out at 0.889.

Take CGILGDSPREELGC [CEP85]: the median enrichment was found to be 0.759.

The values are drawn from the supplement of paper PMC11502859.
